From patent US20070116673

T1: α2 peptide KLGFFKRKYEKMTKNPDEIDETTELSS (synthetic integrin α2 cytoplasmic tail peptide)
T1 chain: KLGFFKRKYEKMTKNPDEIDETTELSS

T2: synthetic integrin α1 cytoplasmic tail peptide (RPLKKKMEKRPLKKKMEK)
T2 chain: RPLKKKMEKRPLKKKMEK


Assays:
[1] = target: T1, α2 peptide KLGFFKRKYEKMTKNPDEIDETTELSS …
[2] = target: T2, synthetic integrin α1 cytoplasmic tail …

Row | Protein | catalytic activity of immunoprecipitated TCPTP (diFMUP substrate) [1] | catalytic activity of immunoprecipitated TCPTP (diFMUP substrate) [2] | phosphatase activity of immunoprecipitated SHP-2 (diFMUP substrate) [1] | phosphatase activity of immunoprecipitated SHP-2 (diFMUP substrate) [2]
1 | endogenous TCPTP (T cell protein tyrosine phosphatase) of HeLa cells (protein) MPTTIEREFEELDTQRRWQPLYLEIRNESHDYPHRVAKFPENRNRNRYRDVSPYDHSRVKLQNAENDYINASLVDIEEAQRSYILTQGPLPNTCCHFWLMVWQQKTKAVVMLNRIVEKESVKCAQYWPTDDQEMLFKETGFSVKLLSEDVKSYYTVHLLQLENINSGETRTISHFHYTTWPDFGVPESPASFLNFLFKVRESGSLNPDHGPAVIHCSAGIGRSGTFSLVDTCLVLMEKGDDINIKQVLLNMRKYRMGLIQTPDQLRFSYMAIIEGAKCIKGDSSIQKRWKELSKEDLSPAFDHSPNKIMTEKYNGNRIGLEEEKLTGDRCTGLSSKMQDTMEENSESALRKRIREDRKATTAQKVQQMKQRLNENERKRKRWLYWQPILTKMGFMSVILVGAFVGWTLFFQQNAL | the corresponding α2 tail peptide had no effect | increased 2.95±0.48 fold |  | 
2 | SHP-2 (protein tyrosine phosphatase immunoprecipitated from HeLa lysates) (protein) TSRRWFHPNITGVEAENLLLTRGVDGSFLARPSKSNPGDFTLSVRRNGAVTHIKIQNTGDYYDLYGGEKFATLAELVQYYMEHHGQLKEKNGDVIELKYPLNCADPTSERWFHGHLSGKEAEKLLTEKGKHGSFLVRESQSHPGDFVLSVRTGDDKGESNDGKSKVTHVMIRCQELKYDVGGGERFDSLTDLVEHYKKNPMVETLGTVLQLKQPLNTTRINAAEIESRVRELSKLAETTDKVKQGFWEEFETLQQQECKLLYSRKEGQRQENKNKNRYKNILPFDHTRVVLHDGDPNEPVSDYINANIIMPEFETKCNNSKPKKSYIATQGCLQNTVNDFWRMVFQENSRVIVMTTKEVERGKSKCVKYWPDEYALKEYGVMRVRNVKESAAHDYTLRELKLSKVGQGNTERTVWQYHFRTWPDHGVPSDPGGVLDFLEEVHHKQESIMDAGPVVVHCSAGIGRTGTFIVIDILIDIIREKGVDCDIDVPKTIQMVRSQRSGMVQTEAQYRFIYMAVQHYIETLQRRIEEEQKSKRKGHEYTNIKYSLADQTSGDQSPLPPCTPTPPCAEMREDSARVYENVGLMQQQKSFR |  |  | another protein tyrosine phosphatase, SHP-2, was not activated by either peptide | another protein tyrosine phosphatase, SHP-2, was not activated by either peptide
